Assay results reported in article PMC11215305.

Target: RadD of F. nucleatum subsp. nucleatum ATCC 23726 (Fusobacterium nucleatum subsp. nucleatum ATCC 23726 (endogenous))
Assay: flow cytometry on cells

human Siglec-7-Ig (from UniProt Q9Y286 19-353) (Fc fusion)
percent reduction of binding with 5 mM arginine: 31%
